Assay results published in article PMC8148087.
Where two headings read alike, the source gives them in different places.

Tests used:
[1] = target: FAM-HLA (model peptide HLA attached to a FAM fluorophore); experiment: fluorescence polarisation
[2] = target: FAM-HLA (model peptide HLA attached to a FAM fluorophore); experiment: fluorescence polarisation; remark: listed apart in the source

Kd [1] | Kd [2] | Substance
> 30 µM | 9 µM | E. coli DnaK Y145A (from UniProt P0A6Y8 1-638) (natural protein)
4 µM | 8 µM | E. coli DnaK Y145W (from UniProt P0A6Y8 1-638) (natural protein)
> 30 µM | 9 µM | E. coli DnaK, wild type (from UniProt P0A6Y8 1-638) (natural protein)
4 µM | – | human Hsc70 Y149A (from UniProt P11142 1-646) (natural protein)
26 µM | 5 µM | human heat shock cognate protein 70 (Hsc70), wild type (from UniProt P11142 1-646) (natural protein)
